B1: DN-IKKγ: IKKγ with the first 134 amino acids removed; N-terminally truncated form that interferes with IKK activity (protein, UniProt Q9Y6K9 135-419, looked up, fragment)
chain: MAEDKASVKAQVTSLLGELQESQSRLEAATKECQALEGRARAASEQARQLESEREALQQQHSVQVDQLRMQGQSVEAALRMERQAASEEKRKLAQLQVAYHQLFQEYDNHIKSSVVGSERKRGMQLEDLKQQLQQAEEALVAKQEVIDKLKEEAEQHKIVMETVPVLKAQADIYKADFQAERQAREKLAEKKELLQEQLEQLQREYSKLKASCQESARIEDMRKRHVEVSQAPLPPAPAYLSSPLALPSQRRSPPEEPPDFCCPKCQYQAPDMDTLQIHVMECIE

How the values were obtained:
[1] = molecular target: T1, IKKβ subunit (Homo sapiens, UniProt O14920); settings: Ogino et al., Mol. Pharmacol. 2004; cited from earlier work
T1 sequence (O14920 1-756): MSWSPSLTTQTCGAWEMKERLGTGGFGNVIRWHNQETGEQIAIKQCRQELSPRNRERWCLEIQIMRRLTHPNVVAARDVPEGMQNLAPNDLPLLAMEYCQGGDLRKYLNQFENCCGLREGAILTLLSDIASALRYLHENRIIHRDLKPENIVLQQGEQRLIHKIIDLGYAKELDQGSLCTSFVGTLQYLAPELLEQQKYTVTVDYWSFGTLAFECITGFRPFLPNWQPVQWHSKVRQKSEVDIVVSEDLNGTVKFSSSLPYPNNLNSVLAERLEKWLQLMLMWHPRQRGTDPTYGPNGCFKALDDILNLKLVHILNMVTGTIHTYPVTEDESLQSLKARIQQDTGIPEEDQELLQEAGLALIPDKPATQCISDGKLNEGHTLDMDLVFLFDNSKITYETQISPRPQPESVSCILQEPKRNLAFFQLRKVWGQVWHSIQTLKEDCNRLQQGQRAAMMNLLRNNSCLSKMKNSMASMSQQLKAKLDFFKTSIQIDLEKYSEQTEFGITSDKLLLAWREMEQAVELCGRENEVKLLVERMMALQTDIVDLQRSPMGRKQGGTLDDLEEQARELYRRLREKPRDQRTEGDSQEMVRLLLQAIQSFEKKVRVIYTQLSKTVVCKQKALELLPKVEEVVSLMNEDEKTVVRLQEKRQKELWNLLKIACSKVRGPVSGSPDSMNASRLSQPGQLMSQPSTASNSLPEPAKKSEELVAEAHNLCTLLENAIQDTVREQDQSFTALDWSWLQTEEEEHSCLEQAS

[2] = system: PC12 cells expressing mutant HDx1; assay: Mutant HDx1 toxicity in PC12 cells treated with IKK inhibitor; format: cell-based; settings: Example 5
Experimental: To examine the effects of a small molecule IKK inhibitor on mutant Htt toxicity, PC12 cells expressing mutant HDx1 are treated with herbimycin or another known IKK inhibitor plus β-gal and NF-κB reporter in six-well plates, essentially as described above in Example 4.

[3] = system: NF-κB-dependent gene expression; assay: NF-κB luciferase gene reporter assay in inducible PC12 cells expressing mutant HDx1; format: cell-based
Description: Gene Reporter and transfections. The pNF-κB-luciferase with five enhanced elements and the control plasmid without NF-κB binding sites, pCIS-CK luciferase, were used for gene reporter assays (Strategene, La Jolla, Calif.). To normalize for transfection efficiency between samples, a β-galactosidase (β-gal) construct expressed from the EF-1α promoter (Invitrogen, Carlsbad, Calif.), was included in all gene reporter assays. PC12 cells were transfected with control or NF-κB-luciferase plasmids using lipofectamine-plus. On the following day, cells were left untreated or stimulated for 8 hr with 1 μg/ml ecdysone to induce expression of HDx1. […] Luciferase activity was measured by addition of the substrate (Promega, Madison, Wis.) to equal amounts of protein from each sample. […] All gene reporter assays were corrected for transfection efficiency by normalizing the units if β-gal in the extracts, using the β-gal assay (Invitrogen). β-gal values from the samples were divided by the β-gal value from control, 25polyQ, noninduced PC12 cells (no expression of HDx1) and multiplied by each corresponding luciferase reading. […]
Gene Reporter and transfections. […] Protein concentration was determined by the BCA method (Pierce, Rockford, Ill.). […] Bound p65 was detected with a goat anti-rabbit antibody conjugated to horseradish peroxidase. […]

[4] = system: HEK-293 cells; assay: Mutant HDx1 toxicity in transfected HEK-293 cells (count of condensed GFP-positive bodies); format: cell-based, Human; settings: 48 hr after transfection
Experimental: (§1) Transfection of HEK-293 cells with mutant HDx1-EGFP alone (Kasantsev et al., 1999) or with one of the following constructs, full-length (F), DN, and deleted C terminus (DC) of IKKγ (provided by Dr. E. Zandi, University of Southern California) Rothwarf et al., 1998) or ΔF-βTrCP, was done using lipofectamine-plus reagents (Invitrogen). For histochemistry, cultured cells were fixed in 4% paraformaldehyde for 30 min, permeabilized with 70% methanol for 1 hr., and washed with PBS. Cells were stained with anti-HA for IKKγ or anti-myc for ΔF-βTrCP (Cell Signaling, Beverly, Mass.) followed by a goat anti-mouse antibody conjugated by Alexa 594 (Molecular Probes, Eugene, Oreg.). Toto-3, a dimeric cyanine, was used to stain nuclei (Molecular Probes). […] Mutant HDx1 toxicity was assessed by counting the number of condensed GFP-positive bodies, which are remnants of […] deoxynucleotidyl transferase-mediated biotinylated UTP nick endlabeling (TUNEL)-positive (TUNEL^+) cells (Khoshnan et al., 2002), using a florescence microscope. […] Apoptotic cells were labeled with terminal deoxynucleotidyl transferase using digoxigenin-labeled nucleotides and detected by anti-digoxigenin antibody and rhodamine-conjugated secondary according to the instructions provided by the manufacturer (Chemicon, Temecula, Calif.).

[5] = system: mutant HDx1; assay: Confocal examination of mutant HDx1 aggregation in HEK-293 cells; format: cell-based, Human; settings: early time point before widespread toxicity
Experimental: as §1

[6] = system: striatal MSNs; assay: Brain slice neurodegeneration assay (biolistic transfection of MSNs with HDx1); format: cell-based; settings: P7 rat brain slices; for effect on MSNs expressing WT HDx1: coexpression with WT HDx1; for neurodegeneration / toxicity of mutant HDx1 in MSNs: coexpression with mutant HDx1, 7 d
Experimental: Brain slice preparation. All animal experiments were performed in accordance with the Institutional Animal Care and Use Committee and Duke University Medical Center Animal Guidelines. Postnatal day 7 (P7) CD Sprague Dawley rats (Charles River Laboratory, Raleigh, N.C.) were decapitated, and the brains were surgically removed and placed in ice-cold Neurobasal medium (Invitrogen). The tissue was fixed to a chilled, stainless steel Vibratome stage using cyanoacrylate glue (Krazy-Glue) and covered with Neurobasal medium. Coronal brain slices (250 μm thick) were cut by Vibratome (VT1000S; Leica, Nusslock Germany) as described previously (Edgerton and Reinhart, 2003). Brain slices were kept at 37° C. in 5.0% CO2 for 1 hr.
Bolistic transfection. Gold particles (1.6 μm gold microcarriers; BioRad, Hercules, Calif.) were used as DNA carriers for transfection as described previously (Lo et al., 1994). Briefly, gold particles were sonicated in 0.05 M spermidine in the presence of plasmid DNA. The gold-DNA mixture was washed three times in 100% ethanol before being loaded into Helios plastic cartridges (Bio-Rad) according to manufacturer's instructions. Slices were transfected using a Bio-Rad Helios gun with a cyan fluorescent protein (CFP)-tagged Htt fragment, together with yellow fluorescent protein (YFP) as a morphometric marker. In a number of experiments, one of the IKKγ constructs was also cotransfected with the Htt-construct and YFP. CFP-tagged Htt fragments were exon-1-N-terminal fragments containing either a short-Q (Q23) or a long-Q (Q148) polyQ domain.
Brain slice neurodegeneration assay. For each condition, transfections were performed on […] brain slices per experiment. Protein expression and neurodegeneration (loss of processes, shriveling of the soma) were assay 2-7 d after transfection using a Leica fluorescence microscope with appropriate filters for YFP and CFP. The total area of the striatum was identified, and transfected MSNs were identified by their morphology. CFP fluorescence was used to determine expression of Htt fragments and their aggregation into macro-inclusions. Each experiment involved three to twelve transfected brain slices per condition, and the data are means from six independent experiments for each condition.

[7] = molecular target: T2, GST-HDx1 (Homo sapiens, UniProt P42858, INS38QQQQQQQQQQQQQQQQQQQQQQQQQQQQQQ); assay: GST pull-down binding of in vitro-translated IKKγ constructs to GST-HDx1; settings: [35S] methionine-labeled construct, GST-HDx1 with expanded polyQ
T2 construct: GST-HDx1 with 20 or 51 polyQs, with and without polyproline domains, was obtained from Dr. E. Wanker; made in house; host or cells: Escherichia coli
Experimental: Protein-protein interaction. In vitro binding of IKKγ to mutant HDx1 was performed using glutathione S-transferase (GST)-pull down assays. GST-HDx1 with 20 or 51 polyQs, with and without polyproline domains, was obtained from Dr. E. Wanker (Max Plank Institute, Berlin, Germany). These constructs were expressed in Escherichia coli and purified with glutathione beads (Amersham Biosciences, Piscataway, N.J.) according to manufacturer's instructions. IKKγ constructs were transcribed and translated in rabbit reticulocytes in the presence of [^35S] methionine (Promega). Briefly, 5 μg of GST-HDx1 bound to beads was incubated with 10 μl of each labeled in vitro-translated IKKγ produce in 500 μl of Tris-based buffer containing 10% glycerol and 6 mM DTT and rocked at room temperature for 2 hr. Beads were washed five times in the same buffer. Bound IKKγ was examined by SDS-PAGE, followed by autoradiography. Recombinant anti-HDx1 intrabodies (Khoshnan et al., 2002) were expressed and examined similarly from binding to GST-HDx1. For competition assays, 10-fold excess in vitro-translated intrabodies were added to GST-HDx1 plus deleted C terminus IKKγ and processed as above.

[8] = system: HEK-293 cells; assay: TUNEL staining of HEK-293 cells transfected with mutant HDx1; format: cell-based, Human; settings: HEK-293 cells cotransfected with mutant HDx1
Experimental: as §1

T2 sequence (P42858 with tags, fused parts or gaps with the stated changes): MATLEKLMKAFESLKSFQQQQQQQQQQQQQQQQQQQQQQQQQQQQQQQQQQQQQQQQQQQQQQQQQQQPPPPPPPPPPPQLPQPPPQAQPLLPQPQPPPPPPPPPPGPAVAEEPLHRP

Molecule | NF-κB activation [1] | toxicity of mutant HDx1 in cultured cells [2] | NF-κB expression ([3]; PC12 cells expressing mutant HDx1, Example 5) | toxicity of mutant HDx1 (condensed GFP+ bodies) [4] | aggregation of mutant HDx1 [5] | effect on MSNs expressing WT HDx1 [6] | neurodegeneration / toxicity of mutant HDx1 in MSNs [6] | binding of IKKγ construct to HDx1 [7] | mutant HDx1-induced NF-κB-dependent gene expression ([3]; PC12 cells, ecdysone-induced HDx1, with or without NGF) | number of TUNEL+ cells [8]
CO[C@H]1[C@@H](OC)C[C@H](C)[C@@H](OC)C2=CC(=O)C=C(NC(=O)/C(C)=C/C=C\[C@H](OC)[C@@H](OC(N)=O)/C(C)=C/[C@@H]1C)C2=O [Herbimycin, Herbimycin A] | abrogates NF-κB activation | blocks the toxicity | reduce NF-κB expression |  |  |  |  |  |  | 
IKKγ: full-length regulatory subunit of the IKK complex, expressed from a construct |  |  |  | little effect on toxicity | promotes aggregation of mutant HDx1 | no obvious effect | no significant effect on neurodegeneration |  |  | 
WT-βTrCP: wild-type E3-ubiquitin ligase βTrCP |  |  |  |  |  |  | does not influence the toxicity of mutant HDx1 in MSNs |  |  | 
B1 |  |  |  | strongly reduces the toxicity of mutant HDx1 | no apparent effect on HDx1 aggregation | no obvious effect | significantly neuroprotective | diminishes binding to HDx1 | blocks basal and NGF-induced NF-κB-dependent gene expression | significantly reduced

Source: patent US7803758B2, “I kappa B kinase complex as a target for the treatment of Huntington's disease” (California Institute of Technology, priority 2004, dated 2010)
